Data from patent US20190024066A1.
Where “and” joins values, the source holds several entries; their conditions need not be identical. Equal values may be shown once.

Assays:
[1] = molecular target: mouse neonatal Fc receptor (mFcRn) (mouse) (UniProt Q61559); test: SPR
CD20 on Raji cells [2] = molecular target: CD20 on Raji cells (UniProt P11836); test: flow cytometry, Raji cells; […]
CD20 on Raji cells [3] = molecular target: CD20 on Raji cells (UniProt P11836); test: flow cytometry, Raji cells; 10 µg/mL
CD20 on Raji cells [4] = molecular target: CD20 on Raji cells (UniProt P11836); test: flow cytometry, Raji cells; 2.5 µg/mL
CD20 on Raji cells [5] = molecular target: CD20 on Raji cells (UniProt P11836); test: flow cytometry, Raji cells; 0.625 µg/mL
CD20 on Raji cells [6] = molecular target: CD20 on Raji cells (UniProt P11836); test: flow cytometry, Raji cells; 0.00061 µg/mL
CD20 on Raji cells [7] = molecular target: CD20 on Raji cells (UniProt P11836); test: flow cytometry, Raji cells; 0.15625 µg/mL
CD20 on Raji cells [8] = molecular target: CD20 on Raji cells (UniProt P11836); test: flow cytometry, Raji cells; 0.009766 µg/mL
CD20 on Raji cells [9] = molecular target: CD20 on Raji cells (UniProt P11836); test: flow cytometry, Raji cells; 0.039063 µg/mL
[10] = molecular target: FcγRIIIaV with a hexahistidine tag (R&D Systems) (human) (UniProt P08637); test: BLI, His-FcγRIIIaV on anti-penta-His sensor, steady-state model
Chain of UniProt P08637 (P08637 17-208 F176V limits assumed): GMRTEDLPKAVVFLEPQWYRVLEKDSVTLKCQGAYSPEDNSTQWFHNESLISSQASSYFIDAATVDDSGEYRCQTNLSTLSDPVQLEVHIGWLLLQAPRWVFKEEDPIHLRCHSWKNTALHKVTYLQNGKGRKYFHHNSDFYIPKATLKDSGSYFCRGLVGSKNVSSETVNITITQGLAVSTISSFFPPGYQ

[11] = molecular target: human neonatal Fc receptor (hFcRn), biotinylated (human) (UniProt P55899); test: SPR, biotinylated hFcRn on streptavidin chip, IgG injected, pH 6.0
Chain of UniProt P55899 (P55899 24-297 limits assumed): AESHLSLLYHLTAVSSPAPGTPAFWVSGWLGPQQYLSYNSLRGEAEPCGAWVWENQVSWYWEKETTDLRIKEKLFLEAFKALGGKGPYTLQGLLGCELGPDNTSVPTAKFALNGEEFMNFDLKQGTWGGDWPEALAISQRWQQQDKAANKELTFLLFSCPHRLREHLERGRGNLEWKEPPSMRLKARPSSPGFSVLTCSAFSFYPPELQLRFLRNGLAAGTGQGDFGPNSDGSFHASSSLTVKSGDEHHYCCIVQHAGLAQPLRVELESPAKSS

[12] = molecular target: His-tagged FcγRIIb (R&D Systems) (human) (UniProt P31994); test: competition ELISA, His-FcγRIIb, competitor coated HZ 15C1; 1000 µg/ml
Chain of UniProt P31994 (P31994 46-217 limits assumed): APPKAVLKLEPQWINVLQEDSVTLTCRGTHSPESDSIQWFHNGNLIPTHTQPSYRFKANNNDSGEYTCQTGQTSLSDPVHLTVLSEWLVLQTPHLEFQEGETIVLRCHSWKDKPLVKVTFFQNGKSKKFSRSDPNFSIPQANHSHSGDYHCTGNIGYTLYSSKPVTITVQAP

[13] = molecular target: His-tagged FcγRIIb (R&D Systems) (human) (UniProt P31994); test: competition ELISA, His-FcγRIIb, competitor coated HZ 15C1; 3000 µg/ml
[14] = molecular target: His-tagged FcγRIIb (R&D Systems) (human) (UniProt P31994); test: competition ELISA, His-FcγRIIb, competitor coated HZ 15C1; 4.12 µg/ml
[15] = molecular target: His-tagged FcγRIIb (R&D Systems) (human) (UniProt P31994); test: competition ELISA, His-FcγRIIb, competitor coated HZ 15C1; 12.35 µg/ml
[16] = molecular target: His-tagged FcγRIIb (R&D Systems) (human) (UniProt P31994); test: competition ELISA, His-FcγRIIb, competitor coated HZ 15C1; 37.04 µg/ml
[17] = molecular target: His-tagged FcγRIIb (R&D Systems) (human) (UniProt P31994); test: competition ELISA, His-FcγRIIb, competitor coated HZ 15C1; 111.11 µg/ml
[18] = molecular target: His-tagged FcγRIIb (R&D Systems) (human) (UniProt P31994); test: competition ELISA, His-FcγRIIb, competitor coated HZ 15C1; 333.33 µg/ml
[19] = molecular target: His-tagged FcγRI (R&D Systems) (human) (UniProt P12314); test: competition ELISA, His-FcγRI, competitor coated anti-idiotype antibody; 2 µg/ml
Chain of UniProt P12314 (P12314 16-288 limits assumed): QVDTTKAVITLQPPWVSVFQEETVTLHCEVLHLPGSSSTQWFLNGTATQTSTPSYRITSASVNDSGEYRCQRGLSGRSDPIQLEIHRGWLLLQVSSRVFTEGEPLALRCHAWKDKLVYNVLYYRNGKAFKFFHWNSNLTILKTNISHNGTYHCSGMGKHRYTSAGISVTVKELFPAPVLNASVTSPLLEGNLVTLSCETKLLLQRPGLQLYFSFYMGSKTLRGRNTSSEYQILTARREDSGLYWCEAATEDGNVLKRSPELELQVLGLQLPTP

[20] = molecular target: His-tagged FcγRI (R&D Systems) (human) (UniProt P12314); test: competition ELISA, His-FcγRI, competitor coated anti-idiotype antibody; 10 µg/ml
[21] = molecular target: His-tagged FcγRI (R&D Systems) (human) (UniProt P12314); test: competition ELISA, His-FcγRI, competitor coated anti-idiotype antibody; 50 µg/ml
[22] = molecular target: His-tagged FcγRI (R&D Systems) (human) (UniProt P12314); test: competition ELISA, His-FcγRI, competitor coated anti-idiotype antibody; 0.4 µg/ml
[23] = molecular target: His-tagged FcγRI (R&D Systems) (human) (UniProt P12314); test: competition ELISA, His-FcγRI, competitor coated anti-idiotype antibody; 0.08 µg/ml
[24] = molecular target: His-tagged FcγRI (R&D Systems) (human) (UniProt P12314); test: competition ELISA, His-FcγRI, competitor coated anti-idiotype antibody; 0.016 µg/ml
[25] = molecular target: His-tagged FcγRI (R&D Systems) (human) (UniProt P12314); test: competition ELISA, His-FcγRI, competitor coated anti-idiotype antibody; 0.0006 µg/ml
[26] = molecular target: His-tagged FcγRI (R&D Systems) (human) (UniProt P12314); test: competition ELISA, His-FcγRI, competitor coated anti-idiotype antibody; 0.0032 µg/ml
[27] = molecular target: His-tagged FcγRIIa (FcγRIIaR, R&D Systems) (human) (UniProt P12318); test: competition ELISA, His-FcγRIIaR, competitor coated HZ 15C1; concentration cell 2.22185
Chain of UniProt P12318 (P12318 36-218 H167R limits assumed): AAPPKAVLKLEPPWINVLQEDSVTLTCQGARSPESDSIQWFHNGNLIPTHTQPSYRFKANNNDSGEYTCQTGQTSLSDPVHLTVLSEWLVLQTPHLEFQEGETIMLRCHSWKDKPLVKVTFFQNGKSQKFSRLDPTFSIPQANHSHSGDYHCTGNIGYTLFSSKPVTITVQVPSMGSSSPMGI

[28] = molecular target: His-tagged FcγRIIa (FcγRIIaR, R&D Systems) (human) (UniProt P12318); test: competition ELISA, His-FcγRIIaR, competitor coated HZ 15C1; concentration cell 2.69897
[29] = molecular target: His-tagged FcγRIIa (FcγRIIaR, R&D Systems) (human) (UniProt P12318); test: competition ELISA, His-FcγRIIaR, competitor coated HZ 15C1; concentration cell -0.16368
[30] = molecular target: His-tagged FcγRIIa (FcγRIIaR, R&D Systems) (human) (UniProt P12318); test: competition ELISA, His-FcγRIIaR, competitor coated HZ 15C1; concentration cell -0.64016
[31] = molecular target: His-tagged FcγRIIa (FcγRIIaR, R&D Systems) (human) (UniProt P12318); test: competition ELISA, His-FcγRIIaR, competitor coated HZ 15C1; concentration cell 0.313445
[32] = molecular target: His-tagged FcγRIIa (FcγRIIaR, R&D Systems) (human) (UniProt P12318); test: competition ELISA, His-FcγRIIaR, competitor coated HZ 15C1; concentration cell 0.790496
[33] = molecular target: His-tagged FcγRIIa (FcγRIIaR, R&D Systems) (human) (UniProt P12318); test: competition ELISA, His-FcγRIIaR, competitor coated HZ 15C1; concentration cell 1.267617
[34] = molecular target: His-tagged FcγRIIa (FcγRIIaR, R&D Systems) (human) (UniProt P12318); test: competition ELISA, His-FcγRIIaR, competitor coated HZ 15C1; concentration cell 1.744731

Chain of UniProt P11836 (P11836 whole entry): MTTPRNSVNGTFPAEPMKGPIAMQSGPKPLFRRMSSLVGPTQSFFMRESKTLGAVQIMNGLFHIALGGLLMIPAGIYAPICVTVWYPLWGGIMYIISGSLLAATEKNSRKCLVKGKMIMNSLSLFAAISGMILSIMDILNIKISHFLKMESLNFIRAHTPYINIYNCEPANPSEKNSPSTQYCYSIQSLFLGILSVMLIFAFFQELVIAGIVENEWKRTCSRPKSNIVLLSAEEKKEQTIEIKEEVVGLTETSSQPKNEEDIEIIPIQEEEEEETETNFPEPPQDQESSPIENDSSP
Chain of UniProt Q61559 (Q61559 22-297 limits assumed): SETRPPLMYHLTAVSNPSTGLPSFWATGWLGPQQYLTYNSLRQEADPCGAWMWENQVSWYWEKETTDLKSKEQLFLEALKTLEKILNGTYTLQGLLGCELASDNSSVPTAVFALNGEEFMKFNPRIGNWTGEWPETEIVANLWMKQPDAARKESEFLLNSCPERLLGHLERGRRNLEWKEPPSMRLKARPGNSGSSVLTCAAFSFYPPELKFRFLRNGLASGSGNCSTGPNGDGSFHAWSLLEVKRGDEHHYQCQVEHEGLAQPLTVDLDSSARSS

Question: “293S anti-CD20 (monoclonal anti-CD20 antibody obinutuzumab, GA101, produced in 293S cells)” was tested. Which Kd [1] did it give?
Answer: The Kd was 0.258 nM.

Question: And the flow cytometry signal (name not given) (CD20 on Raji cells [2])?
Answer: The flow cytometry signal (name not given) was 28.6 and 27.5 and 23.2.

Question: What about the flow cytometry signal (name not given) (CD20 on Raji cells [3]) of the same substance?
Answer: The flow cytometry signal (name not given) was 2640 and 2560 and 2580.

Question: And the flow cytometry signal (name not given) (CD20 on Raji cells [4])?
Answer: Its flow cytometry signal (name not given) is 2150 and 2180 and 1920.

Question: What about the flow cytometry signal (name not given) (CD20 on Raji cells [5]) of the same substance?
Answer: The flow cytometry signal (name not given) was 1500 and 1520 and 1550.

Question: What about the flow cytometry signal (name not given) (CD20 on Raji cells [6]) of the same substance?
Answer: The flow cytometry signal (name not given) was 14.1 and 12.3 and 11.3.

Question: What about the flow cytometry signal (name not given) (CD20 on Raji cells [7]) of the same substance?
Answer: Its flow cytometry signal (name not given) is 673 (2×) and 644.

Question: What about the flow cytometry signal (name not given) (CD20 on Raji cells [8]) of the same substance?
Answer: Its flow cytometry signal (name not given) is 76.4 and 79.7 and 72.2.

Question: What about the flow cytometry signal (name not given) (CD20 on Raji cells [9]) of the same substance?
Answer: Its flow cytometry signal (name not given) is 241 and 234 and 210.

Question: What about the Kd [10] of the same substance?
Answer: The Kd was 500 nM.

Question: And the Kd [11]?
Answer: The Kd was 5.6 nM.

Question: And the absorbance at 450 nm [12]?
Answer: Its absorbance at 450 nm is 0.641 and 0.629.

Question: What about the absorbance at 450 nm [13] of the same substance?
Answer: Its absorbance at 450 nm is 0.284 and 0.274.

Question: And the absorbance at 450 nm [14]?
Answer: Its absorbance at 450 nm is 2.27 and 1.92.

Question: And the absorbance at 450 nm [15]?
Answer: The absorbance at 450 nm was 1.99 and 1.87.

Question: And the absorbance at 450 nm [16]?
Answer: The absorbance at 450 nm was 1.66 and 1.54.

Question: And the absorbance at 450 nm [17]?
Answer: The absorbance at 450 nm was 1.52 and 1.49.

Question: What about the absorbance at 450 nm [18] of the same substance?
Answer: Its absorbance at 450 nm is 1.06 and 1.1.

Question: What about the absorbance at 450 nm [19] of the same substance?
Answer: The absorbance at 450 nm was 0.388 and 0.379 and 0.377.

Question: What about the absorbance at 450 nm [20] of the same substance?
Answer: The absorbance at 450 nm was 0.143 and 0.141.

Question: And the absorbance at 450 nm [21]?
Answer: The absorbance at 450 nm was 0.085 and 0.091 and 0.084.

Question: What about the absorbance at 450 nm [22] of the same substance?
Answer: Its absorbance at 450 nm is 1.14 and 1.1 (2×).

Question: What about the absorbance at 450 nm [23] of the same substance?
Answer: Its absorbance at 450 nm is 2.24 and 2.2 and 2.33.

Question: What about the absorbance at 450 nm [24] of the same substance?
Answer: The absorbance at 450 nm was 3.05 and 3.04 and 3.16.

Question: What about the absorbance at 450 nm [25] of the same substance?
Answer: Its absorbance at 450 nm is 3.43 and 3.6 (2×).

Question: What about the absorbance at 450 nm [26] of the same substance?
Answer: The absorbance at 450 nm was 3.39 and 3.4 and 3.44.

Question: What about the absorbance at 450 nm [27] of the same substance?
Answer: Its absorbance at 450 nm is 1.5 and 1.64 and 1.68.

Question: What about the absorbance at 450 nm [28] of the same substance?
Answer: The absorbance at 450 nm was 0.684 and 0.732 and 0.671.

Question: What about the absorbance at 450 nm [29] of the same substance?
Answer: Its absorbance at 450 nm is 2.69 and 3.02 and 3.1.

Question: And the absorbance at 450 nm [30]?
Answer: The absorbance at 450 nm was 2.6 and 2.88 and 2.98.

Question: What about the absorbance at 450 nm [31] of the same substance?
Answer: The absorbance at 450 nm was 2.57 and 2.96 and 2.93.

Question: What about the absorbance at 450 nm [32] of the same substance?
Answer: The absorbance at 450 nm was 2.56 and 2.91 and 2.98.

Question: And the absorbance at 450 nm [33]?
Answer: The absorbance at 450 nm was 2.43 and 2.91 and 2.73.

Question: What about the absorbance at 450 nm [34] of the same substance?
Answer: Its absorbance at 450 nm is 2.11 and 2.46 and 2.36.
